Data reported in the DeepSol protein solubility set.

Assay: soluble on expression in E. coli; label from the status in PepcDB or PDB records

Sequence | soluble on expression in E. coli
MGNCLFGGLGDEEEDLLIKVIKSDGGVLEFYSPVTAGFVSHGFSGHALFSAVDLLWKPLAHDHLLVPGQSYYLFPNIVSDELKTFVGSCHVRSNSESLSAITPYRMSLDYNHRVLKRSYTDVFSRNSHIRTRQKEKKTRRRRTSSKGAIWKVNLIINTEELLQILSEDGRTNELIESVRAVAKGETSSITSSSSENFLSVVQT | soluble
MKTLSKQDNTMEWLVKKSCCNKQDNRHVLMLCDAGGAIKMIAEVKSDFAVKVGDLLSPLQNALYCINREKLHTVKVLSASCYSPDEWERQCKVAGKTQ | soluble
SLSANLVGITGIARRLVQDGSIEEATARTAQNQAMAAKVPLPQWLIDKKLVSAAKLAAANALEFGMPLLDVSAFDHNHNAMNLVDEELLQKHRVLPLFKRGNRLFVGISNPTQTQALDDIKFHTNLVVEPILVDEDQIRRTLEQWQSRKG | soluble
MGSDKIHHHHHHMKLVCAQSDLSTNLSLVNRAVPSRPTHPVLANVLLQADAETNQVSLTAFDLSLGIRTSFNADVWQSGAIALPAKLLVDITSRLPEGEITLDDESATDGTATGEGLIVSLTPKTGKYQLRAMGAEEFPELPLIENTTAIYLTATSLIEGLRGSLFATSGDETKQVLTGVHLTVKQDTLEFAATDGHRLAVVETTNERPLEDNDQQLEVTVPARALRELERMLAHNAASEEPIALYLDQGQVIFAWQNQRLTSRTLEGQYPAYRQLIPRQFERQVTIERRQFLSTLERIAVLADQKNNIVKLTIDSTAQELTLSCEAQEMGSGRESMNAEIAGEDIEIAFNVKYLMEGLKALPSPEIQMHINQNLTPVIFTPLGGLKMTYLAMPVQLRN | not soluble
MKKIFMMVHELDVNKGGMTSSMFNRSKEFYDADIPADIVTFDYKGNYDEIIKALKKQGKMDRRTKMYNVFEYFKQISNNKHFKSNKLLYKHISERLKNTIEIEESKGISRYFDITTGTYIAYIRKSKSEKVIDFFKDNKRIERFSFIDNKVHMKETFNVDNKVCYQVFYDEKGYPYISRNINANNGAVGKTYVLVNKKEFKNNLALCVYYLEKLIKDSKDSIMICDGPGSFPKMFNTNHKNAQKYGVIHVNHHENFDDTGAFKKSEKYIIENANKINGVIVLTEAQRLDILNQFDVENIFTISNFVKIHNAPKHFQTEKIVGHISRMVPTKRIDLLIEVAELVVKKDNAVKFHIYGEGSVKDKIAKMIEDKNLERNVFLKGYTTTPQKCLEDFKLVVSTSQYEGQGLSMIEAMISKRPVVAFDIKYGPSDFIEDNKNGYLIENHNINDMADKILQLVNNDVLAAEFGSKARENIIEKYSTESILEKWLNLFNS | not soluble
MIAVIFEVWPAEGEKQHYLDIAAGLRAELETIDGFLSIERFQSISNPEKMLSLSFFRDEQAVRAWRNTLPHRTAQALGRSGVFSDYRLRIAHVIRDYGLLEREEAPADSRDAHPVEGSSLG | not soluble
GVKCEPIEELTISVPEEYSSKMIDMVTRRKGDLVSMETQGDRVNIEFDMPSRGIIGLRTNVLTASAGEAIMAHRFKCYQPYKGEIERRSNGSMIAMESGTAFAYAIDKLQDRGKFFIYPQDEVYAGQV | not soluble
MTKAADDNIIVGLDIGTATVSALVGEILPDGQINIIGAGSSPSRGMDKGGVNDLESVVKSVQRAIDQAELMAECQISRVFISLSGKHIASRIEKGMGTISDEEVSQEDMDRAIHTAKSIKIGDEQ | not soluble
MAQSFLLMGALIQHHLKGEKADLLTPEKLLEAANKQGTVPSRVRYQWMEDEETGRLKAVGYHTSMESGRDQVRVRLLKHDFPNNRYEFWEEGATGPTILWTPDNPGIELPTDTAHGEQPVIPSAIPGLEIPEMDDVSILATPMPDEKDFRDYILVFPENAFPPIYVYLSKKIDTPIWLEHHHHHH | soluble
MKAYLGLYTARLETPARSLKEKRALIKPALERLKARFPVSAARLYGLDAWGYEVVGFTLLGNDPAWVEETMRAAARFLAEAGGFQVALEEFRLEAFELDGLL | soluble
